Reference: article PMC5954021

Experiment: western blot, TGF-β-treated MCF-10A
Conditions: glycan lost, control: control sgRNA cells

Q: For PD-L1: STT3A knockdown, which expression_or_secretion is on record?
A: Its expression_or_secretion is “no change”.

Q: Which expression_or_secretion does the source give for PD-L1: STT3A/3B knockdown here?
A: The expression_or_secretion was “decreases”.

Q: With PD-L1: STT3B knockdown as the substance, how does the expression_or_secretion read?
A: The expression_or_secretion was “no change”.
